For one data set, the target named is c-Jun;c-Fos (;) (UniProt P05412+P01100). Description: MITOMI (QPID). The note with it: QPID microfluidic MITOMI; 1 h incubation of in vitro expressed extract (about 25 ul, 50 ng protein) with spotted Cy5-dsDNA (0.0156-2 uM spotting dilutions, PEG …).
In data set [1] the target is c-Jun (UniProt P05412). The data set is described as follows: MITOMI (QPID). The note with it: QPID microfluidic MITOMI; 1 h incubation of in vitro expressed extract (about 25 ul, 50 ng protein) with spotted Cy5-dsDNA (0.0156-2 uM spotting dilutions, PEG …).
Chain of c-Jun (UniProt P05412) (P05412 252-315): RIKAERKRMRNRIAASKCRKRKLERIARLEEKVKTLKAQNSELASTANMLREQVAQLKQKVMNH
Another data set deals with c-Fos (Homo sapiens, UniProt P01100). Description: MITOMI-type chip (QPID); rabbit reticulocyte lysate, 1 h; wash 50 mM HEPES; temperature not stated; DNA spotted at 0.0156-2 uM. The note with it: tags: N-cMyc, C-His6 (kept); label: Cy5 on the primer strand.
Chain of c-Fos (P01100 whole entry): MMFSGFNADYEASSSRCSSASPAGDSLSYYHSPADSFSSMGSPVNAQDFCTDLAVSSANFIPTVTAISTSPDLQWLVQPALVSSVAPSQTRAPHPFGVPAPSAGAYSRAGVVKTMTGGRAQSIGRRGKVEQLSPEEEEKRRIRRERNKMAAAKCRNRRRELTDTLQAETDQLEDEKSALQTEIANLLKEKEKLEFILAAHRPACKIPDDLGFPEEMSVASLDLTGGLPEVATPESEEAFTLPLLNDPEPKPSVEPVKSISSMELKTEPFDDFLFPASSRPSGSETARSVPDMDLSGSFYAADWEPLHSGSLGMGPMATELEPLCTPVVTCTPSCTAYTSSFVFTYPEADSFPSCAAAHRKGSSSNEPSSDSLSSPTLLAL
The next data set deals with T1, ATF1 (Homo sapiens, UniProt P18846).
T1 sequence: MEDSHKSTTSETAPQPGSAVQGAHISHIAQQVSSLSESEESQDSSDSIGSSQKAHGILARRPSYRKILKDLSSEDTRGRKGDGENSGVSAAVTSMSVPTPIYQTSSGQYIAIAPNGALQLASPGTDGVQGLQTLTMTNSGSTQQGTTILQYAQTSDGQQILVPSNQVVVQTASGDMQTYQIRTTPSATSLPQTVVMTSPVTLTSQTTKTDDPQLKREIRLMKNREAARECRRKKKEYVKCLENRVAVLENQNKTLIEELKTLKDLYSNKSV
The data set is described as above. Conditions: tags: N-cMyc, C-His6 (kept); chain copies: 2; label: Cy5 on the primer strand.

For a further data set, the target named is c-Fos/c-Jun (Homo sapiens, UniProt P01100;P05412 full;full). The data set is described as above. The note with it: tags: c-Fos N-cMyc, C-His6; c-Jun HA and V5 at the termini (kept); copies: 1;1; label: Cy5 on the primer strand.
Chain of c-Fos/c-Jun (P01100 whole entry, chain 1 of 2): as the sequence (P01100 whole entry) above
Chain of c-Fos/c-Jun (P05412 whole entry, chain 2 of 2): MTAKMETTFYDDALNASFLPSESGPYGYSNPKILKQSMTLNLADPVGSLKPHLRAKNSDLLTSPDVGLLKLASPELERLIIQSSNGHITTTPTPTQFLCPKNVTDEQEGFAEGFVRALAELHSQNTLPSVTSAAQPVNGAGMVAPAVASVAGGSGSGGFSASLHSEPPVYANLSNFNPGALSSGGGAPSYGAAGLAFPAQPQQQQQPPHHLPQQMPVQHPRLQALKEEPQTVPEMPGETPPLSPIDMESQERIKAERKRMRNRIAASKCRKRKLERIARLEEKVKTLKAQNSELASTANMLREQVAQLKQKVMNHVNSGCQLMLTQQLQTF
For data set [2], the target named is c-Jun (Homo sapiens, UniProt P05412). The data set is described as above. Conditions: tags: N-cMyc, C-His6 (kept); chain copies: 2; label: Cy5 on the primer strand.
Chain of c-Jun (Homo sapiens, UniProt P05412) (P05412 whole entry): as the sequence (P05412 whole entry, chain 2 of 2) above

Residue numbers refer to the chain shown, from its start. Bounds are passed on as bounds.

Chain of c-Jun;c-Fos (;) (P05412 252-315, chain 1 of 2): as the sequence (P05412 252-315) above
Chain of c-Jun;c-Fos (;) (P01100 137-200, chain 2 of 2): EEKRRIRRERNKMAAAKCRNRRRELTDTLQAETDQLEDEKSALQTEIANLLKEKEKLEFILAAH

A word on the Kd: it is the free concentration of one partner at which half of the binding sites on the other are occupied at equilibrium, for simple one-to-one binding. A low value points to higher affinity. Regarding “TTATGACCTGGGAGTGACGTCATGGAATCCACAGA (double strand) [oligo 2 (CRE)]”, the Kd was 150 nM with c-Jun;c-Fos (;) and 2400 nM with c-Jun [1].

Molecule “TTATCCACTTGCGCTCGCCGAGTGGCGTCACCAGCGGTACTGTAATGACGAT (double strand) [oligo 6 (CRE half-site)]” came in with a Kd with c-Jun;c-Fos (;) of 4000 nM.

For “GGCCACTACCGCTTCCTCCACATGAGTCATGGTTTTCTCCACCAAGGAAGT (double strand) [oligo 3 (AP-1)]”, the Kd was determined as 270 nM with c-Jun;c-Fos (;) and 2500 nM with c-Jun [1].

On to “GGCCACTACCGCTTCCTCCACATGACGTCATGGTTTTCTCCACCAAGGAAGT (double strand) [oligo 1 (CRE)]”, for which the dissociation constant (Kd) with c-Jun;c-Fos (;) worked out at 190 nM; with c-Jun [1], 1300 nM.

In the data set with c-Jun;c-Fos (;), “TTATGACCTGGGAGTGAGTCAATGGAATCCACAGA (double strand) [oligo 4 (AP-1)]” came in with a Kd of 500 nM.

On to “GGCCACTACCGCTTCCTCCACATGGCGTCATGGTTTTCTCCACCAAGGAAGT (double strand) [oligo 5 (CRE half-site)]”, for which the Kd with c-Jun;c-Fos (;) is 3500 nM.

B1: oligo 7 (Mutant) (dsDNA)
DNA 1: GGCCACTACCGCTTCCTCCACAAATAAAATTGGTTTTCTCCACCAAGGAAGT
DNA 2: ACTTCCTTGGTGGAGAAAACCAATTTTATTTGTGGAGGAAGCGGTAGTGGCC
For B1, the Kd in the data set with c-Fos and with ATF1 was greater than 2000 nM each time.

B2: oligo 6 (HS) (dsDNA)
DNA 1: TTATCCACTTGCGCTCGCCGAGTGGCGTCACCAGCGGTACTGTAATGACGAT
DNA 2: ATCGTCATTACAGTACCGCTGGTGACGCCACTCGGCGAGCGCAAGTGGATAA
As to B2, the Kd with c-Fos was greater than 2000 nM; with c-Fos/c-Jun, roughly 4000 nM; with ATF1, 40 nM.

B3: oligo 2 (CRE) (dsDNA)
DNA 1: TTATGACCTGGGAGTGACGTCATGGAATCCACAGA
DNA 2: TCTGTGGATTCCATGACGTCACTCCCAGGTCATAA
In the case of B3, the Kd in the data set with c-Fos is greater than 2000 nM; in the data set with c-Fos/c-Jun, 150 nM; with c-Jun [2] it was roughly 2400 nM; in the data set with ATF1 it was 30 nM.

B4: oligo 4 (AP-1) (dsDNA)
DNA 1: B3 DNA 1 with C18G, G19T, T20C, C21A
DNA 2: B3 DNA 2 with G15T, A16G, C17A, G18C
For the molecule B4, the values for the dissociation constant Kd with c-Fos, in the data set with c-Fos/c-Jun and with ATF1 were greater than 2000 nM, 500 nM and roughly 17000 nM, respectively.

B5: oligo 3 (AP-1) (dsDNA)
DNA 1: GGCCACTACCGCTTCCTCCACATGAGTCATGGTTTTCTCCACCAAGGAAGT
DNA 2: ACTTCCTTGGTGGAGAAAACCATGACTCATGTGGAGGAAGCGGTAGTGGCC
Consider B5, for which the Kd in the data set with c-Fos is greater than 2000 nM; with c-Fos/c-Jun, 270 nM; with c-Jun [2], roughly 2500 nM; in the data set with ATF1 it was roughly 11000 nM.

B6: oligo 1 (CRE) (dsDNA)
DNA 1: GGCCACTACCGCTTCCTCCACATGACGTCATGGTTTTCTCCACCAAGGAAGT
DNA 2: ACTTCCTTGGTGGAGAAAACCATGACGTCATGTGGAGGAAGCGGTAGTGGCC
For B6, the Kd in the data set with c-Fos is greater than 2000 nM; with c-Fos/c-Jun, 190 nM; in the data set with c-Jun [2], 1300 nM; in the data set with ATF1, 40 nM.

B7: oligo 5 (HS) (dsDNA)
DNA 1: B6 DNA 1 with A25G
DNA 2: B6 DNA 2 with T28C
Regarding B7, the equilibrium dissociation constant (Kd) was greater than 2000 nM with c-Fos, roughly 3500 nM with c-Fos/c-Jun and 170 nM in the data set with ATF1.

Source of the values: paper PMC4824076, “Integrated microfluidic approach for quantitative high-throughput measurements of transcription factor binding affinities”.
